# Measurements from patent US20040126379A1.
# Target: human CD44v6 on antigen-positive FaDu cells (human) (UniProt P16070)
# Experiment: flow cytometry (FACS) on antigen-positive FaDu cells, on ice 1 h, FITC-labeled anti-human IgG detection
row,Kd,Molecule
1,1.8 nM,BIWI 1 (from UniProt P0DOX5 2-449)
2,1 nM,"BIWA 4 (antibody, human IgG1, kappa, V domains shown) VH: EVQLVESGGGLVKPGGSLRLSCAASGFTFSSYDMSWVRQAPGKGLEWVSTISSGGSYTYYLDSIKGRFTISRDNAKNSLYLQMNSLRAEDTAVYYCARQGLDYWGRGTLVTVSS VL: EIVLTQSPATLSLSPGERATLSCSASSSINYIYWYQQKPGQAPRLLIYLTSNLASGVPARFSGSGSGTDFTLTISSLEPEDFAVYYCLQWSSNPLTFGGGTKVEIKR"
